Measurements from patent US20180086849A1 (Hoffmann-La Roche, published 2018).

Columns and labels:
[1] = molecular target: T1, Human EGFR (immobilized on CM5 chip) (human, UniProt P00533 25-645, limits assumed); experiment: SPR (Biacore T100): construct captured at 200 nM on immobilised human EGFR, then CD3 fusion at 2000 nM
T1 construct: also called tumor antigen

[2] = molecular target: T2, human CEA (Carcinoembryonic antigen) on cells (human, UniProt P06731 35-685); experiment: cell-based or functional assay
T2 sequence (looked up): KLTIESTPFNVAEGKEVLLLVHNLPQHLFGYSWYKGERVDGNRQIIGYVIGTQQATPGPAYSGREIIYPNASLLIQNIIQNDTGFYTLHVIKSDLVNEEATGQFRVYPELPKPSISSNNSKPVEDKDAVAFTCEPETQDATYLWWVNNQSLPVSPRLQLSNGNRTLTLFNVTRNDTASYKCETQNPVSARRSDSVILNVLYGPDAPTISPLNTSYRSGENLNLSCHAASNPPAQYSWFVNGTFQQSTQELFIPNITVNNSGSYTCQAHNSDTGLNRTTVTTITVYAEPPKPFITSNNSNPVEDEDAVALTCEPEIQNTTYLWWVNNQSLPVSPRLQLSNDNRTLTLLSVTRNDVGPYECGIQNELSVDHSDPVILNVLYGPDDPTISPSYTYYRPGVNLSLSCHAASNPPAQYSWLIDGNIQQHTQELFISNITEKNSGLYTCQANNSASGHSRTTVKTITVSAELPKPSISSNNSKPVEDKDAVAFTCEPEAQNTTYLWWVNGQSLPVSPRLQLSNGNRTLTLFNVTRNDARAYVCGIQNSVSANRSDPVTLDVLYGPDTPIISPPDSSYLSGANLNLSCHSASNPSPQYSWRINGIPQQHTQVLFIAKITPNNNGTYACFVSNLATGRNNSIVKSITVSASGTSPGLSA

[3] = molecular target: human MCSP (Melanoma-associated Chondroitin Sulfate Proteoglycan) on cells (human, UniProt Q6UVK1 30-2322); experiment: cell-based or functional assay
Chain of human MCSP (Melanoma-associated Chondroitin Sulfate Proteoglycan) on cells (Q6UVK1 30-2322): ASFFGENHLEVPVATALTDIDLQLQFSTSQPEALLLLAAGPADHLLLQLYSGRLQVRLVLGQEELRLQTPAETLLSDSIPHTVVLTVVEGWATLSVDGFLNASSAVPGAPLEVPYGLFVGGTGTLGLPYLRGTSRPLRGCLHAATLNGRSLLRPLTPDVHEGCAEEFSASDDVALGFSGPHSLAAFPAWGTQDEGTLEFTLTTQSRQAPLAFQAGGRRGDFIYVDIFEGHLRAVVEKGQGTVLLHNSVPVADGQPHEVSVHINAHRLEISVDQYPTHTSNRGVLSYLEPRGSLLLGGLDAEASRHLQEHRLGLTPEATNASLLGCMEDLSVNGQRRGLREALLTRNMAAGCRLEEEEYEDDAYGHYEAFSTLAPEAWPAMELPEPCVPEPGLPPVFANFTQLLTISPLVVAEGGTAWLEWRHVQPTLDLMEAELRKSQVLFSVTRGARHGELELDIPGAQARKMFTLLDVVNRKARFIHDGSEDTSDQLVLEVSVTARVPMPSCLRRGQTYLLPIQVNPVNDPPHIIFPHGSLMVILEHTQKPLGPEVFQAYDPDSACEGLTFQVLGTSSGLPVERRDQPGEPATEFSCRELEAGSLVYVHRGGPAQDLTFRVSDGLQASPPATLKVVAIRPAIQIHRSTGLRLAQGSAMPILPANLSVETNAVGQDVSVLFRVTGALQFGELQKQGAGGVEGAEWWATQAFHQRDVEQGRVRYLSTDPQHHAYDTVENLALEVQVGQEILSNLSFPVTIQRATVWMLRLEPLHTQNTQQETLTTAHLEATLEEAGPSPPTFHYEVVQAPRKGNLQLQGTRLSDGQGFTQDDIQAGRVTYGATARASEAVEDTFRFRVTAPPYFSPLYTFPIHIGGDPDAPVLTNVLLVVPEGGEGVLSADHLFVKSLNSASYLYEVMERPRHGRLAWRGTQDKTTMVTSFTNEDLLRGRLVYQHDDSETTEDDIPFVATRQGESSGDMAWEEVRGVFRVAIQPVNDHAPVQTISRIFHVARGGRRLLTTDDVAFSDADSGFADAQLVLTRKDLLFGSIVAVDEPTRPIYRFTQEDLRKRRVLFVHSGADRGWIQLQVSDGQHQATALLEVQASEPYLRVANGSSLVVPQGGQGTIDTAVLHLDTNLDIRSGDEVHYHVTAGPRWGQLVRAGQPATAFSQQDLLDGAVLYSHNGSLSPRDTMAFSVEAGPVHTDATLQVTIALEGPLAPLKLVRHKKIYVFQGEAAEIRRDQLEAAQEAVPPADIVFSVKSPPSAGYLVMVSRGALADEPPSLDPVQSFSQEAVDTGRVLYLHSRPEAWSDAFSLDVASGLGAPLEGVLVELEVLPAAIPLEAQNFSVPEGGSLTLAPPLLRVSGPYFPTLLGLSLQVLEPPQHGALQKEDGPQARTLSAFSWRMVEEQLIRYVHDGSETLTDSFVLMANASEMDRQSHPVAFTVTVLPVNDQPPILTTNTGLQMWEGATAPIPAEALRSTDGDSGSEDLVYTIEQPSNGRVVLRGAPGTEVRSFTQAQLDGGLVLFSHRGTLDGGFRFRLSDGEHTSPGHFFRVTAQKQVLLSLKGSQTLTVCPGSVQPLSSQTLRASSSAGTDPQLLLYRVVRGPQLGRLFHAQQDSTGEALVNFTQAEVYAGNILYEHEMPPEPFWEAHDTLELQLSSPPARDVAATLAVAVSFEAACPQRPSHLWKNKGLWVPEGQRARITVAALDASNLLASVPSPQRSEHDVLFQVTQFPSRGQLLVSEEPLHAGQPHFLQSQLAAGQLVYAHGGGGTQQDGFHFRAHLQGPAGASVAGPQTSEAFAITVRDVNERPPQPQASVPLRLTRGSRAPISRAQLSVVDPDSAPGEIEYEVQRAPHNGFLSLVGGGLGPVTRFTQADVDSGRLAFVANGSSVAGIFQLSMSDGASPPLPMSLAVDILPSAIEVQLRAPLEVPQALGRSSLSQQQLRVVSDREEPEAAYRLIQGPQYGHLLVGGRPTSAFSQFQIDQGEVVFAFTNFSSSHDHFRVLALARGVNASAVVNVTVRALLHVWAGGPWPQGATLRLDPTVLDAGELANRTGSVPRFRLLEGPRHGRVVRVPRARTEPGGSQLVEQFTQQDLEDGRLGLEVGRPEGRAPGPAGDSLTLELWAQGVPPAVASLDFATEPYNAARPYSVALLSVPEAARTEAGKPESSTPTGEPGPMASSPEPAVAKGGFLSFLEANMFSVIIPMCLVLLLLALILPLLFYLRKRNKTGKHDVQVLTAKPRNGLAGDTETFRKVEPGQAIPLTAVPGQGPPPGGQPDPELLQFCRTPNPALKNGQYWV

[4] = molecular target: Her2 on KPL-4 cells (human (human cell line KPL-4), UniProt P04626 23-1255); experiment: cell-based or functional assay

B1: 1+1 IgG scFab, one armed inverted (anti-EGFR/anti-huCD3) (bispecific antibody)
chain 1: not shown
chain 2: not shown
chain 3: EVQLVESGGGLVQPGGSLRLSCAASGYSFTGYTMNWVRQAPGKGLEWVALINPYKGVSTYNQKFKDRFTISVDKSKNTAYLQMNSLRAEDTAVYYCARSGYYGDSDWYFDVWGQGTLVTVSSASTKGPSVFPLAPSSKSTSGGTAALGCLVKDYFPEPVTVSWNSGALTSGVHTFPAVLQSSGLYSLSSVVTVPSSSLGTQTYICNVNHKPSNTKVDKKVEPKSCDKTHTCPPCPAPEAAGGPSVFLFPPKPKDTLMISRTPEVTCVVVDVSHEDPEVKFNWYVDGVEVHNAKTKPREEQYNSTYRVVSVLTVLHQDWLNGKEYKCKVSNKALGAPIEKTISKAKGQPREPQVCTLPPSRDELTKNQVSLSCAVKGFYPSDIAVEWESNGQPENNYKTTPPVLDSDGSFFLVSKLTVDKSRWQQGNVFSCSVMHEALHNHYTQKSLSLSPGK
- binding result [1]: binds

B2: 2+1 IgG Crossfab, inverted; VL/VH exchange (CH1A1A/V9), anti-CEA/anti-huCD3 (bispecific antibody)
chain 1: EVQLVESGGGLVQPGGSLRLSCAASGYSFTGYTMNWVRQAPGKGLEWVALINPYKGVSTYNQKFKDRFTISVDKSKNTAYLQMNSLRAEDTAVYYCARSGYYGDSDWYFDVWGQGTLVTVSSASVAAPSVFIFPPSDEQLKSGTASVVCLLNNFYPREAKVQWKVDNALQSGNSQESVTEQDSKDSTYSLSSTLTLSKADYEKHKVYACEVTHQGLSSPVTKSFNRGEC
chain 2: not shown
chain 3: QVQLVQSGAEVKKPGASVKVSCKASGYTFTEFGMNWVRQAPGQGLEWMGWINTKTGEATYVEEFKGRVTFTTDTSTSTAYMELRSLRSDDTAVYYCARWDFAYYVEAMDYWGQGTTVTVSSASTKGPSVFPLAPSSKSTSGGTAALGCLVKDYFPEPVTVSWNSGALTSGVHTFPAVLQSSGLYSLSSVVTVPSSSLGTQTYICNVNHKPSNTKVDKKVEPKSCDKTHTCPPCPAPEAAGGPSVFLFPPKPKDTLMISRTPEVTCVVVDVSHEDPEVKFNWYVDGVEVHNAKTKPREEQYNSTYRVVSVLTVLHQDWLNGKEYKCKVSNKALGAPIEKTISKAKGQPREPQVCTLPPSRDELTKNQVSLSCAVKGFYPSDIAVEWESNGQPENNYKTTPPVLDSDGSFFLVSKLTVDKSRWQQGNVFSCSVMHEALHNHYTQKSLSLSPGK
chain 4: DIQMTQSPSSLSASVGDRVTITCKASAAVGTYVAWYQQKPGKAPKLLIYSASYRKRGVPSRFSGSGSGTDFTLTISSLQPEDFATYYCHQYYTYPLFTFGQGTKLEIKRTVAAPSVFIFPPSDEQLKSGTASVVCLLNNFYPREAKVQWKVDNALQSGNSQESVTEQDSKDSTYSLSSTLTLSKADYEKHKVYACEVTHQGLSSPVTKSFNRGEC
- EC50 of T cell-mediated killing (LDH release) of LS-174T cells, human PBMCs, 28 h [2]: 955 pM
- EC50 of T cell-mediated killing (LDH release) of MKN-45 cells, human PBMCs, 28 h [2]: 243 pM

B3: 2+1 IgG scFab, P329G LALA (anti-EGFR/anti-huCD3) (bispecific antibody)
chain 1: QVQLVQSGAEVKKPGSSVKVSCKASGFTFTDYKIHWVRQAPGQGLEWMGYFNPNSGYSTYAQKFQGRVTITADKSTSTAYMELSSLRSEDTAVYYCARLSPGGYYVMDAWGQGTTVTVSSASTKGPSVFPLAPSSKSTSGGTAALGCLVKDYFPEPVTVSWNSGALTSGVHTFPAVLQSSGLYSLSSVVTVPSSSLGTQTYICNVNHKPSNTKVDKKVEPKSCDKTHTCPPCPAPEAAGGPSVFLFPPKPKDTLMISRTPEVTCVVVDVSHEDPEVKFNWYVDGVEVHNAKTKPREEQYNSTYRVVSVLTVLHQDWLNGKEYKCKVSNKALGAPIEKTISKAKGQPREPQVCTLPPSRDELTKNQVSLSCAVKGFYPSDIAVEWESNGQPENNYKTTPPVLDSDGSFFLVSKLTVDKSRWQQGNVFSCSVMHEALHNHYTQKSLSLSPGK
chain 2: DIQMTQSPSSLSASVGDRVTITCRASQGINNYLNWYQQKPGKAPKRLIYNTNNLQTGVPSRFSGSGSGTEFTLTISSLQPEDFATYYCLQHNSFPTFGQGTKLEIKRTVAAPSVFIFPPSDEQLKSGTASVVCLLNNFYPREAKVQWKVDNALQSGNSQESVTEQDSKDSTYSLSSTLTLSKADYEKHKVYACEVTHQGLSSPVTKSFNRGEC
chain 3: not shown
notes: also called 2+1 IgG scFab (EGFR)
- binding result [1]: binds

B4: 1+1 IgG scFab (anti-EGFR/anti-huCD3) (bispecific antibody)
chain 1: B3 chain 2
chain 2: not shown
chain 3: DKTHTCPPCPAPEAAGGPSVFLFPPKPKDTLMISRTPEVTCVVVDVSHEDPEVKFNWYVDGVEVHNAKTKPREEQYNSTYRVVSVLTVLHQDWLNGKEYKCKVSNKALGAPIEKTISKAKGQPREPQVCTLPPSRDELTKNQVSLSCAVKGFYPSDIAVEWESNGQPENNYKTTPPVLDSDGSFFLVSKLTVDKSRWQQGNVFSCSVMHEALHNHYTQKSLSLSPGK
- binding result [1]: binds

B5: 1+1 IgG scFab, one armed (anti-EGFR/anti-huCD3) (bispecific antibody)
chain 1: not shown
chain 2: B3 chain 1
chain 3: B3 chain 2
- binding result [1]: binds

B6: aVH TCB (Crossfab fragment with a CD3 binding moiety and two aVH moieties binding MCSP, P329G LALA) (bispecific antibody)
light: SASYRKR
heavy 1: HQYYTYPLFT
heavy 2: QAVVTQEPSLTVSPGGTVTLTCGSSTGAVTTSNYANWVQEKPGQAFRGLIGGTNKRAPGTPARFSGSLLGGKAALTLSGAQPEDEAEYYCALWYSNLWVFGGGTKLTVLSSASTKGPSVFPLAPSSKSTSGGTAALGCLVKDYFPEPVTVSWNSGALTSGVHTFPAVLQSSGLYSLSSVVTVPSSSLGTQTYICNVNHKPSNTKVDKKVEPKSC
- EC50 [pM] 24 h of T-cell mediated killing of MV-3 cells [3]: 9120 pM
- EC50 [pM] 48 h of T-cell mediated killing of MV-3 cells [3]: 8970 pM

B7: Darpin TCB (Crossfab fragment with a CD3 binding moiety and two Darpin moieties binding HER2, P329G LALA) (bispecific antibody)
light: EVQLVESGGGLVQPGGSLRLSCAASGFNIKDTYIGWVRRAPGKGTELVARIYPTNGYTRYADSVKGRFTISADTSKNTAYLQMNSLRAEDTAVYYCARTSWGGWLSGDYWGQGTLVTVSSDKTHTCPPCPAPEAAGGPSVFLFPPKPKDTLMISRTPEVTCVVVDVSHEDPEVKFNWYVDGVEVHNAKTKPREEQYNSTYRVVSVLTVLHQDWLNGKEYKCKVSNKALGAPIEKTISKAKGQPREPQVCTLPPSRDELTKNQVSLSCAVKGFYPSDIAVEWESNGQPENNYKTTPPVLDSDGSFFLVSKLTVDKSRWQQGNVFSCSVMHEALHNHYTQKSLSLSPGK
heavy 1: not shown
heavy 2: B6 heavy 2
- EC50 [pM] 24 h of T-cell mediated killing of KPL-4 cells [4]: 376 pM
- EC50 [pM] 48 h of T-cell mediated killing of KPL-4 cells [4]: 235 pM
